According to PMC5008011, “The sclerostin-neutralizing antibody AbD09097 recognizes an epitope adjacent to sclerostin's binding site for the Wnt co-receptor LRP6” (Open Biology, 2016):
Substitutions are numbered along the chain they refer to.

T1: 14mer peptide PARLLPNAIGRGKW, equivalent to residues Pro86 to Trp99 of sclerostin loop 2 (Homo sapiens)
T1 construct: loop 2 of sclerostin; also called first peptide; base peptide; source: synthetic peptide, synthesized on solid support (array)
T1 chain: PARLLPNAIGRGKW

T2: 14mer peptide NAIGRGKWWRPSGP, equivalent to residues Asn92 to Pro105 of sclerostin loop 2 (Homo sapiens)
T2 construct: loop 2 of sclerostin; also called second peptide; source: synthetic peptide, synthesized on solid support (array)
T2 chain: NAIGRGKWWRPSGP

T3: 14mer peptide PARLLPNAIGRGKW (Homo sapiens)
T3 construct: stretch of loop 2 of sclerostin; also called base peptide; loop 2 mimicking peptide; source: synthetic peptide, on solid support (peptide array)
T3 chain: PARLLPNAIGRGKW

B1: Fab AbD09097 (Fab, V domains shown)
VH: QVQLVESGGGLVQPGGSLRLSCAASGFTFTNYYMHWVRQAPGKGLEWVSTIAYDGSSTYYADSVKGRFTISRDNSKNTLYLQMNSLRAEDTAVYYCARWFTDDIWGQGTLVTVSS
VL: not shown
notes: format Fab-Thr-MH with a thrombin site (-FLVPRGS-) between CH1 and the tags; kappa light chain; From the HuCAL GOLD phage library, panned on murine sclerostin; also called ancestor Fab AbD09097; HCA230Z (as full-length IgG, AbD Serotec); source: E. coli, periplasmic expression, purified via hexahistidine-tag
B2: Fab AbD12685 (Fab, V domains shown)
VH: B1 VH
VL: DIVLTQSPATLSLSPGERATLSCRASQSISSNELAWYQQKPGQAPRLLIYDTSNRATGVPARFSGSGSGTDFTLTISSLEPEDFAVYYCQQDYTFPLTFGQGTKVEIK
notes: source: E. coli, periplasmic expression, purified via hexahistidine-tag
B3: Fab AbD12684 (Fab, V domains shown)
VH: B1 VH
VL: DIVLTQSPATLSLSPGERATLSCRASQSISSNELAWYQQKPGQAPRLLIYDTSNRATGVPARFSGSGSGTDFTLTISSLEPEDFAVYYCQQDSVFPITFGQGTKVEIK
notes: consensus motif -QQDXXFPI- (X: His, Glu, Val or Ser); source: E. coli, periplasmic expression, purified via hexahistidine-tag
B4: Fab AbD12682 (Fab, V domains shown)
VH: B1 VH
VL: not shown
notes: as for B3
B5: Fab AbD12681 (Fab, V domains shown)
VH: B1 VH
VL: B2 VL with Y93H, T94E, L97I
notes: as for B3
B6: Fab AbD12683 (Fab, V domains shown)
VH: B1 VH
VL: not shown
notes: carries a tyrosine at position 3 of CDR3L; source: E. coli, periplasmic expression, purified via hexahistidine-tag
B7: Fab AbD12687 (Fab, V domains shown)
VH: B1 VH
VL: B2 VL with Y93V, T94V, F95M, L97I
notes: as for B2
B8: Fab AbD09097 (Fab, V domains shown)
VH: B1 VH
VL: not shown
notes: also called ancestor Fab; source: E. coli, periplasmic expression, purified by the hexahistidine-tag
B9: Fab AbD12683 (Fab, V domains shown)
VH: B1 VH
VL: not shown
notes: as the light chain of Dm1 up to the Cys before CDR3L; as the light chain of Dm1 from Thr97 (Kabat) to the end; heavy chain extension as in Dm1; source: E. coli, periplasmic expression, purified by the hexahistidine-tag
B10: Fab AbD12682 (Fab, V domains shown)
VH: B1 VH
VL: not shown
notes: as for B9

biological target: T4, murine sclerostin (Mus musculus, UniProt Q99P68); experiment: cell-based or functional assay; details: not given
T4 sequence (Q99P68 24-211): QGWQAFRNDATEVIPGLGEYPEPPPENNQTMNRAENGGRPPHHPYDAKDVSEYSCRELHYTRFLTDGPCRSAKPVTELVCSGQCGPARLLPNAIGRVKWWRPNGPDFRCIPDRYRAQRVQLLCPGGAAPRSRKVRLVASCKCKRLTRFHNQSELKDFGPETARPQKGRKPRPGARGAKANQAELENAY

| Binder | Wnt1 reporter gene assay (HEK293TSA M50, luciferase): fold change of the IC50 of murine sclerostin for inhibition of Wnt1 activity with 500 nM Fab; the blocked pair is sclerostin and LRP5/6 |
| --- | --- |
| B1 | 12.6 fold |

biological target: T5, human sclerostin (Homo sapiens, UniProt Q9BQB4); experiment: cell-based or functional assay; details: not given
T5 sequence (Q9BQB4 24-213): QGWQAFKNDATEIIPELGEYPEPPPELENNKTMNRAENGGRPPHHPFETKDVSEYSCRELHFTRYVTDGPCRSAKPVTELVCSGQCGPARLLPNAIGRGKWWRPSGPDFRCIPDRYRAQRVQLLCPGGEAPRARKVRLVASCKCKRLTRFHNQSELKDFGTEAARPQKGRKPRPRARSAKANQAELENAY

| Binder | Wnt1 reporter gene assay (HEK293TSA M50, luciferase): fold change of the IC50 of human sclerostin for inhibition of Wnt1 activity with 500 nM Fab; the blocked pair is sclerostin and LRP5/6 |
| --- | --- |
| B1 | 6.4 fold |

biological target: T4, murine sclerostin; experiment: SPR; ProteOn, 25°C, HBS150T (10 mM HEPES, 150 mM NaCl, pH 7.5, 0.005% Tween 20); sclerostin proteins or variants amine-coupled to about 600 RU on a GLC chip; Fabs as analytes at 100, 75, 50, 25, 12.5 and 6.25 nM (one-shot kinetics); 1:1 Langmuir model; details: both partners purified

| Binder | Kd | koff | kon |
| --- | --- | --- | --- |
| B1 | 46 nM | 0.00018 s⁻¹ | 4400 M⁻¹ s⁻¹ |

biological target: T5, human sclerostin; experiment: as above; details: both partners purified

| Binder | Kd | koff | kon |
| --- | --- | --- | --- |
| B1 | 260 nM | 0.0016 s⁻¹ | 6600 M⁻¹ s⁻¹ |

biological target: T4, murine sclerostin; experiment: as above; details: both partners purified; remark: another data set of the same source

| Binder | Kd | koff | kon |
| --- | --- | --- | --- |
| B2 | 145 nM | 0.00029 s⁻¹ | 13000 M⁻¹ s⁻¹ |
| B3 | 15 nM | 0.00025 s⁻¹ | 18400 M⁻¹ s⁻¹ |
| B4 | 13 nM | 0.00025 s⁻¹ | 22000 M⁻¹ s⁻¹ |
| B5 | 35 nM | 0.00054 s⁻¹ | 17000 M⁻¹ s⁻¹ |
| B6 | < 1 nM | < 1e-06 s⁻¹ | 3400 M⁻¹ s⁻¹ |
| B7 | 120 nM | 0.0017 s⁻¹ | 16000 M⁻¹ s⁻¹ |

biological target: T5, human sclerostin; experiment: as above; details: both partners purified; remark: another data set of the same source

| Binder | Kd | koff | kon |
| --- | --- | --- | --- |
| B2 | 56 nM | 0.001 s⁻¹ | 20400 M⁻¹ s⁻¹ |
| B3 | 32 nM | 0.00073 s⁻¹ | 25300 M⁻¹ s⁻¹ |
| B4 | 23 nM | 0.00066 s⁻¹ | 32000 M⁻¹ s⁻¹ |
| B5 | 66 nM | 0.0016 s⁻¹ | 27400 M⁻¹ s⁻¹ |
| B6 | 53 nM | 0.00033 s⁻¹ | 6400 M⁻¹ s⁻¹ |
| B7 | 228 nM | 0.0047 s⁻¹ | 23300 M⁻¹ s⁻¹ |

biological target: T4, murine sclerostin; experiment: ELISA; plates coated with 5 µg/ml protein in PBS; Fab at 2 µg/ml, 1 h at room temperature; detection with anti-human Fab-alkaline phosphatase and AttoPhos; signal/noise over the background of BSA, N1-CD33-His6 and GST; details: both partners purified

| Binder | ELISA signal/noise ratio (fold background) |
| --- | --- |
| B1 | 39 fold background |
| B2 | 46 fold background |
| B3 | 53 fold background |
| B4 | 44 fold background |
| B5 | 26 fold background |
| B6 | 28 fold background |
| B7 | 50 fold background |

biological target: T5, human sclerostin; experiment: as above; details: both partners purified

| Binder | ELISA signal/noise ratio (fold background) |
| --- | --- |
| B1 | 34 fold background |
| B2 | 61 fold background |
| B3 | 73 fold background |
| B4 | 57 fold background |
| B5 | 44 fold background |
| B6 | 64 fold background |
| B7 | 57 fold background |

biological target: T4, murine sclerostin; experiment: cell-based or functional assay; details: not given; remark: another data set of the same source

| Binder | Wnt1 reporter gene assay with 20 nM murine sclerostin and 0-670 nM AbD09097: EC50 of the rescue of Wnt1 activity |
| --- | --- |
| B1 | 46 nM |

biological target: T5, human sclerostin; experiment: cell-based or functional assay; details: not given; remark: another data set of the same source

| Binder | Wnt1 reporter gene assay with 20 nM human sclerostin and 0-670 nM AbD09097: EC50 of the rescue of Wnt1 activity |
| --- | --- |
| B1 | 197 nM |

Biological target: T1, 14mer peptide PARLLPNAIGRGKW, …
Experiment: peptide or protein array; truncation array: all truncated variants (3 to 14mer) of two 14mer loop 2 peptides synthesized on solid support; Fab added, modified ELISA with goat anti-human peroxidase coupled secondary antibody
Details: both partners purified

| Binder | binding result |
| --- | --- |
| B8 | binds |
| B9 | binds |
| B10 | binds |

Biological target: T2, 14mer peptide NAIGRGKWWRPSGP, …
Experiment: as above
Details: both partners purified

| Binder | binding result |
| --- | --- |
| B8 | binds |

Biological target: T3, 14mer peptide PARLLPNAIGRGKW
Experiment: peptide or protein array; peptides synthesised on solid support (overlapping, replacement and truncation libraries); Fab detected by a modified ELISA with goat anti-human peroxidase-coupled secondary antibody
Details: both partners purified

| Binder | binding result |
| --- | --- |
| B1 | binds |
| B4 | binds |
| B6 | binds |
